Assays:
Test in all cases: indirect ELISA, protein coated, culture supernatant at 1/50
[1] = molecular target: T1, deamidated low-molecular weight glutenin
T1 construct: also called Glut; LMW-D; deam; LMW
Experimental: (§1) 100 μl of proteins at 1 μg/ml in 50 mM carbonate buffer, pH 9.6, are incubated overnight at 4° C. at the bottom of a 96-well, bottom, plate (Nunc, Maxisorb). After 3 washes with PBS-0.05% Tween 20, an incubation with PBS-2% (w/v) milk is carried out. The PEE 14C7 monoclonal antibody (100 μl of various dilutions of antibody in PBS-0.1% (w/v) milk) is incubated for 1 h at ambient temperature. After washes with PBS-0.05% Tween 20, 100 μl of the peroxidase-coupled goat anti-mouse IgG secondary antibody (ref: 170-6516, Bio-Rad) diluted to 1/3000 is incubated for 1 h at ambient temperature under the same conditions as the primary antibody. After 3 washes, the OPD (0-phenylenediamine, ref: P-1526, Sigma) substrate is incubated for 30 min in the dark. The reaction is stopped by adding 50 μl of H2SO₄ 4N. The optical densities are read at dual wavelength (490 nm for measuring the hydrolysis of the substrate and 630 nm for eliminating the background noise) on a plate spectrometer (Bioteck, E1x808-1).
(§2) The percentages of reactivity of the antibody with respect to each protein are determined as described in Tranquet et al. (2012). In the present case, the percentages are determined at the 1/50 dilution of the culture supernatant (i.e. the strongest dilution which makes it possible to obtain the strongest absorbence on the best-recognized protein—deamidated gamma-gliadins). The percentage recognition of a protein X is obtained by calculating the Protein X absorbence/deamidated gamma-gliadin absorbence ratio.

deamidated ω-2 gliadin = molecular target: T2, deamidated ω-2 gliadin
T2 construct: also called ω2-D; deam. ω2
Experimental: as §1, §2

[2] = molecular target: T3, native high-molecular-weight glutenin
T3 construct: also called HMW
Experimental: as §1, §2

native ω-2 gliadin = molecular target: T4, native ω-2 gliadin
T4 construct: also called non-deamidated ω-2 gliadin
Experimental: as §1, §2

deamidated α-gliadin = molecular target: T5, deamidated α-gliadin
T5 construct: also called α-D; deam. α
Experimental: as §1, §2

native β-gliadin = molecular target: T6, native β-gliadin
T6 construct: also called non-deamidated β-gliadin
Experimental: as §1, §2

deamidated ω-5 gliadin = molecular target: T7, deamidated ω-5 gliadin
T7 construct: also called ω5-D; deam. ω5
Experimental: as §1, §2

[3] = molecular target: T8, native low-molecular-weight glutenin
T8 construct: also called LMW
Experimental: as §1, §2

[4] = molecular target: non-deamidated native ω-5 gliadin
Experimental: as §1, §2

native γ-gliadin = molecular target: T9, native γ-gliadin
T9 construct: also called non-deamidated γ-gliadin
Experimental: as §1, §2

native α-gliadin = molecular target: T10, native α-gliadin
T10 construct: also called non-deamidated α-gliadin
Experimental: as §1, §2

percentage of reactivity (Protein X absorbence/deamidated gamma-gliadin absorbence) [1]: 97% | percentage of reactivity (Protein X absorbence/deamidated gamma-gliadin absorbence) (deamidated ω-2 gliadin): 94% | percentage of reactivity (Protein X absorbence/deamidated gamma-gliadin absorbence) [2]: 2% | percentage of reactivity (Protein X absorbence/deamidated gamma-gliadin absorbence) (native ω-2 gliadin): 39% | percentage of reactivity (Protein X absorbence/deamidated gamma-gliadin absorbence) (deamidated α-gliadin): 76% | percentage of reactivity (Protein X absorbence/deamidated gamma-gliadin absorbence) (native β-gliadin): 4% | percentage of reactivity (Protein X absorbence/deamidated gamma-gliadin absorbence) (deamidated ω-5 gliadin): 99% | percentage of reactivity (Protein X absorbence/deamidated gamma-gliadin absorbence) [3]: 26% | percentage of reactivity (Protein X absorbence/deamidated gamma-gliadin absorbence) [4]: 7% | percentage of reactivity (Protein X absorbence/deamidated gamma-gliadin absorbence) (native γ-gliadin): 1% | percentage of reactivity (Protein X absorbence/deamidated gamma-gliadin absorbence) (native α-gliadin): 1%
B1: PEE 14C7 monoclonal antibody (antibody, IgG1, V domains shown)
VH: DVQLQESGPDLVKPSQSLSLTCTVTGYSITSGYSWHWIRQFPGNKLEWMGYIHYSGSTNYNPSLKSRISITRDTSKNQFFLQLNSVTTEDTATYYCASGYFDVWGAGTTVTVSS
VL: DVVMTQTPLSLPVSLGDQASISCRSSQSLVHSNGNTYLHWYLQKPGQSPKLLIYKVSNRFSGVPDRFSGSGSGTDFTLKISRVEAEDLGVYFCSQSTLVPWTFGGGTKLEIK
notes: Used in the assays as hybridoma culture supernatant; also called PEE 14C7 antibody; monoclonal antibody produced by the PEE 14C7 hybridoma

Source: patent US20160108107A1 (INSTITUT NATIONAL DE LA RECHERCHE AGRONOMIQUE INRA, published 2016)
